Series [1] concerns NC(=O)c1ccc[n+]([C@@H]2O[C@H](COP(=O)(O)OP(=O)(O)OC[C@H]3O[C@@H](n4cnc5c(N)ncnc54)[C@H](O)[C@@H]3O)[C@@H](O)[C@H]2O)c1. Kind of series: purified protein. The series is classed as biochemical, Bacillus cereus. Conditions: 2.0 μM ThsA, 63 mM NaCl, 14 mM Tris-HCl pH 7.5, 25 °C.
Series [2] concerns the molecule itself. Description: SEC-MALS; Superdex 200 Increase 10/300 GL, 200 mM NaCl, 2 mM DTT, 20 mM HEPES pH 7.5, 25 °C; ThsA loaded at 11 mg/mL, ThsB at 24 mg/mL (~1 mM). On the technique in general: Size exclusion chromatography separates by hydrodynamic size, large species first.
Series [3] deals with the molecule itself. Kind of series: SEC; analytical SEC of single ThsA proteins (wild type, N112A, H152A) to compare the oligomeric state; Superdex 200 10/300 GL, 150 mM NaCl, 1 mM DTT, 20 mM HEPES pH 7.5.
Series [4] concerns the molecule itself. Description: crystal structure; ThsA crystals, sitting drop, 20 °C, 22% polypropylene glycol 400, 0.2 M MgCl2, 0.1 M MES pH 6.5; 2.5 Å; four protomers in the asymmetric unit.

“And” between values parts separate entries of the source, which are not always exact repeats. Identical values can stand only once.

For ThsA (Bacillus cereus MSX-D12), in series [1], the Km (usually the concentration of substrate that gives half-maximal velocity) came to 270 µM; the kcat (usually the number of substrate molecules converted per active site and unit of time at saturation) came out at 0.565 s⁻¹.

B1: ThsA of the Bacillus cereus MSX-D12 Thoeris defense system, wild type (enzyme)
chain: MNPIVELFIKDFTKEVMEENAAIFAGAGLSMSVGYVSWAKLLEPIAQEIGLDVNKENDLVSLAQYYCNENQGNRGRINQIILDEFSRKVDLTENHKILARLPIHTYWTTNYDRLIEKALEEENKIADVKYTVKQLATTKVKRDAVVYKMHGDVEHPSEAVLIKDDYEKYSIKMDPYIKALSGDLVSKTFLFVGFSFTDPNLDYILSRVRSAYERDQRRHYCLIKKEERRPDELEADFEYRVRKQELFISDLSRFNIKTIVLNNYNEITEILQRIENNIKTKTVFLSGSAVEYNHWETEHAEQFIHQLSKELIRKDFNIVSGFGLGVGSFVINGVLEELYMNQGTIDDDRLILRPFPQGKKGEEQWDKYRRDMITRTGVSIFLYGNKIDKGQVVKAKGVQSEFNISFEQNNYVVPVGATGYIAKDLWNKVNEEFETYYPGADARMKKLFGELNNEALSIEELINTIIEFVEILSN
notes: ThsA, Bacillus cereus MSX-D12, synthetic thsA gene in pET28a; the structure has an N-terminal sirtuin-like domain (residues 1-283) and a C-terminal SLOG-like domain (residues 284-476); The synthetic thsA gene was cloned; Predominantly a tetramer by SEC-MALS, with a trace of octamer; also called B. cereus ThsA; wild-type ThsA; source: E. coli BL21(DE3), purified (HisTrap, TEV cleavage, second …)
As to B1, the stoichiometry N (usually a count of units in the complex or per binding partner) in series [2] is 4 and 8.

B2: ThsA N112A mutant (enzyme)
chain: MNPIVELFIKDFTKEVMEENAAIFAGAGLSMSVGYVSWAKLLEPIAQEIGLDVNKENDLVSLAQYYCNENQGNRGRINQIILDEFSRKVDLTENHKILARLPIHTYWTTAYDRLIEKALEEENKIADVKYTVKQLATTKVKRDAVVYKMHGDVEHPSEAVLIKDDYEKYSIKMDPYIKALSGDLVSKTFLFVGFSFTDPNLDYILSRVRSAYERDQRRHYCLIKKEERRPDELEADFEYRVRKQELFISDLSRFNIKTIVLNNYNEITEILQRIENNIKTKTVFLSGSAVEYNHWETEHAEQFIHQLSKELIRKDFNIVSGFGLGVGSFVINGVLEELYMNQGTIDDDRLILRPFPQGKKGEEQWDKYRRDMITRTGVSIFLYGNKIDKGQVVKAKGVQSEFNISFEQNNYVVPVGATGYIAKDLWNKVNEEFETYYPGADARMKKLFGELNNEALSIEELINTIIEFVEILSN
notes: ThsA, Bacillus cereus MSX-D12, synthetic thsA gene in pET28a, point mutant made by PCR with mismatched primers; source: E. coli BL21(DE3), purified; not shown: His6, N-terminal, cleaved; MBP, N-terminal, cleaved
With B2, in series [3], the binding result was “binds”.

B3: selenomethionyl ThsA of Bacillus cereus MSX-D12 (crystallised) (enzyme)
chain: MNPIVELFIKDFTKEVMEENAAIFAGAGLSMSVGYVSWAKLLEPIAQEIGLDVNKENDLVSLAQYYCNENQGNRGRINQIILDEFSRKVDLTENHKILARLPIHTYWTTNYDRLIEKALEEENKIADVKYTVKQLATTKVKRDAVVYKMHGDVEHPSEAVLIKDDYEKYSIKMDPYIKALSGDLVSKTFLFVGFSFTDPNLDYILSRVRSAYERDQRRHYCLIKKEERRPDELEADFEYRVRKQELFISDLSRFNIKTIVLNNYNEITEILQRIENNIKTKTVFLSGSAVEYNHWETEHAEQFIHQLSKELIRKDFNIVSGFGLGVGSFVINGVLEELYMNQGTIDDDRLILRPFPQGKKGEEQWDKYRRDMITRTGVSIFLYGNKIDKGQVVKAKGVQSEFNISFEQNNYVVPVGATGYIAKDLWNKVNEEFETYYPGADARMKKLFGELNNEALSIEELINTIIEFVEILSN
modifications: selenomethionine at seven of eight possible Met sites
notes: ThsA, Bacillus cereus MSX-D12, synthetic thsA gene in pET28a; N-terminal sirtuin-like domain (residues 1-283) and C-terminal SLOG-like domain (residues 284-476) in the structure; Four protomers (chains A-D) in the asymmetric unit; The methods describe only selenomethionyl protein before the crystallisation; that the deposited structure is of this form is inferred; also called selenomethionyl …
As to B3, the binding result in series [4] was “binds”.
